# Assay: label from the status in PepcDB records
row,Sequence,protein production
1,MKKKAALATLAMLPLGVVNAHADGDIGIVTINYLNVRNEPTAESSIAFVAKKDDKVLIKDSSNGWYKIKAESGQEGWASSKYIAKSNSDSLRTSTNKEKQVISNSLNMRNGAGTSYRVITVLKKGQKVEVISESNGWSKIKYDGRLGYVSSSYLGDVSNSTNKSKTKQVNTTSLNVRSGPNTSYGLLGKLPKGSKVEVISESNGWSKIKYNGKDAYVSSMYLSDVSQSNSDNSSQSNDKKNTDKVVNTASLNVRSGPGSTYSKLGKVYKGSKVTVLSESSGWAKINFNNKEAFVVGNYLSTSADTSNNNSNSNYDNSSNSNGNNSSSSGQVNGMSGISGAKIDYKSLSYTLESHISKQVEKAASGGNVIAPSNRKSTPSPEFSTFSAQRTSSFVNASSSDIEYYLNPKNFTNTTKGMMQFLKINSYRDGISESSLNSYLNGLSSSVFKNQGAAFINAAKKYNIDVVYLVSHAMWETAYGKSTLAQGQTLTSYKGQPLSKPVKVYNFFGIGAIDKSANVSGAEAAYSNGWTSVETTIDGSAKWISQNYVNSSKYNQNTIYKMKWNYDYTWHQYATDVNWANGISGIMENLIGLYRGGSSLVFEVPQYK,failed
2,MINYKKKIAALMLLATCLSGCSYDLKDLQHLKSKSSFDTVGIKILCEHKKYSEAMKQIDDYLKKHPDDKVALSEKGYVLVSQDKNEDGLLVLLKVNDKYPNYDVTLNNISWAYNNLKMYKLANKYADLALKQTPNSSEELSNKGTALFGLKNYKAAEKYYDKALEKKSTDKVAIWGKALSLYKEKSYSKSLTYFKKYVIVDSSDIQASYYMEKCYIALNDVDGAIKEFKSDIIADPKNKGNYFALGDMYRKKTDYSSALSCYDTLSEIDPEDPEIYFQKAICLVKSGDKDGACENLKLTLSYDSEYVSDIEEEPAFDALKDYDKFKEILNSK,failed
3,MSGHDHGDDGVNRRKVLECMTWAGTGVLWTITGGVPRSLGIIDSAQAATAAAPGMTFLQISDSHVGFDKPANPNALGTLEEAINKINAMPAKPSFMIHTGDITHLSKAAEFDNAERIISQTKLDVHYVPGEHDFIDEEVKLYRERYGRGTKGHGWYSFDAGGVHFVGLVNVVDLKAGGLGNLGAEQLAWLEDDLRGKSKSTPVVLFAHIPLWTVYPEWGWGTEDGGRALEYVKGFGSVTVLNGHIHQVMQKVEGNVTFHTARSTAFPQPAPGAAPSPGPMKVEDARLRSMLGVASINFKQNEQRLAIIDTPLQG,failed
4,MGLGVACSSSQPPGSTTEANGPAVSSGPSLFLLHTTPADGLVLHDARTDESRTLAAGATAKPARAVSPSGRHLAFSYATADSSHLTLLDLTTQQAHRVHAAAGTSVAYSLAWHPNQERLAVGYYRPTDDGGRGPGGLQVVTPDGTTRDVGCSSVREVLHWLPDGSLAARTDDNLYVVDAGDCATQASLDIRRMHHLRYAPTGQQMAYIYRELEYDRDRGEYVPDSSFVLSGPDGTNPETLFGNERHARHHRWAPETNEVALDVRVEASGHRQVVVYDGSRPTFLVSPDQTTADQVHPRWSPSGNRIAFTLRSDASSQAAVRVKGQTRRLGRVDGAVWGWLDDRSVVVPGPDSVRVKALNGTTRYAHPTPQTLLHVWRRSAS,failed
5,MNKMLYGWLLAACCGLPPAFAGDSVDVLAQPALHGPQALRAVLQDVARADARLVAVGERGVVLLSDDNGATWRQATAVPVGVSLTAVQFIDARNGWAVGHAGVVLHSQDGGEHWSVQLDGKRAAALEVQAAEAAADERRLAAAQRLLADGADKPLLALNFTDARNGLVVGAYGVAMRTDDGGRSWQSEIGRLPNGRGLHLYALARQGNQVYIAGEQGLLLRSRDGGEHYEALHGPYDGSYFAATVLPDGRLLLGGLRGSLFASDDGGDSFQALANPTPASINGLRVAGGQLLLANQAGMLLRSGLGAFAAQPVAVSDGLPLTAATTAADGSIVAVGMAGARRLEPSSLSTTTD,failed
6,MADTNYIRDLSLHRNNHVLYVKILSIWDNQSMIFGTPTTMILYDVKGTRIDTRVPWGDYLNNFKPSLFEGKWYYIADFRLKRATSIPKYSSFNYEIEFMWHTKMWPVSDRSDESSLQFIHADEIESESEDYVTDAIGVISSVSTEARFPYVCREGETDYEARYVTFTIRDNLDRIITCVARGSACESFLTKFYRLIGMKTYNYEPITTVLRFFRASNFKGSKALISEHGCSRIFIEESFPDFDVTVYINWFACEDDGSVEGKIEYFVEN,failed
7,AIAEAKTLGIATPRKPVLSVSARKLKDNAADWHNLILKWDSLSDKGFTTASSIANLKVSLLSKEKVELESSSPASMEEEEKTNLDYDKGLEALCEELQAILDGLTKIQMKMEKLSSTTKGICELENYHYREESSRPPLFHTWPTAFFYEVSRRLSEAYKKELLLKHTIGAELAHTADRNLSLTYLSMWLHQPYIESNSKLQLESMLLETGHRAL,failed
8,MNKEVDLSVSCLGKVKELKYDVIILPWGATEPHNLHLPYLTDCILPHDIAVEAAELALSRSGVRCMVMPPVPFGAHNPGQRELPFCIHTRYATQQAILEDIVSSLHVQGFRKLLILSGHGGNNFKGMIRDLAFEYPDFLIAAANWFEVVSPKGYFEAEIDDHAGESETSVMMHYHPELVNLAEAGDGESKPFAIASLNEKVAWVPRHWDKATVDSGVGNPKKATAEKGERYVKPIVEKLAGLFEEMAQHDLYE,not failed
9,MDREALDRKRTWVTQGPIVKVILALATPIVAARLLAATQESVDAIFLGRVSTEDLAAPAAASPLLWLFAGLGIGINTTLSALVSQAIGARDYASAQRYASKLLGATLMLGAASALAIILTAETVFILQGFQGRSLEVALAYTLVEAVGMPFMLALFYFNAVMAASGDTRTPFKVSALSSILNVILDPILIFGLILLPPLGAVGAAVATVLARAAAVSIAFYLLLRGAPGFRVKPSMPDRQLIGHILRIGGPVSLQRLVVSMGFLVMMGIVARLGAPVVAAYNVSLVIIHIVQSATFGFNIATATVVGQNLGASNISRAVRAAYTGVALVFGLLSIGAVAIVGGRSMLVSLFTSIEEVQFYAERMISIVALGMPFLGAFFTAMGVARGSGRTAFISALGIARLWLLRIPAAYTLVYIYSLGDMGVWLAMTLSNIIAGTLAIAWVAGRTWAKPIVKRVPPEPLGEKPPAIPEPAINR,failed
10,MMKRHNILTVLAVLLLTFAACDKNSAPGFSFTTDSILTLTFDKELDAAFVGVGTQNYNPVGMRRSGDTLFIANRAEGSDGVWVVRASTGELLYSLTGWTYNGKNEKFDNQVMDVAVSSDYIFVVNRSSRIDLFRRNDYSYVTTIGRTGWQSSSLLQCEAAEVAGDKLFIRDKQKIKVVQISDCTPENRFKVPVFAQNTDSTSSNNGFNLESVARHEGLIYVSDYETSRILVIDPATVAVKGEPVRFLRSYRMPNKPLSMGFFQNEMYVVCANNCIVRVDLRTGKELGSYSSFAGGVGLGTPGRLLFHNDTFYLAGRNANAPRLIQGKVMFVEISELD,failed
11,MRLIVVGIAEDITEKKQLETELQRLATTDVLTQSSNRRHFFECANREFEQARLQGSSLAFLLLDIDDFKVINDTYGHPEGDIVLQRIAESGRAALRRGDLFGRIGGEEFAAVFPGCTADMARQVAERLQREIQRQNFSHQGQTFTITVSQGLTGLLAEDESLDNLFARADSAMYEAKRQGKNRIITGLEHHHHHH,failed
12,NNNSKINLFCVPSAGSSASIFSAWDKTSAENLKVIALEYPGHGRKIQQSLSHDPDFLAHQFSLEILAYGNTPYVLFGHSVGASLIWKIEEKLKLLHADHNLILKIVSARPSPLFQNLIHNYSHLTDEQMIKELRLYNNFPDEILNNASALNFFLPIIKNDFILSDNMLKKPIFKSSVPLMSVYGEADPYIKNHNIMESWSTYTNKWLGAHQFSGDHFYFLDTTILQKMLHLIQEKIY,failed
13,MANDKRTSPPTPRQPAKGGAAGKRQGHAAEGTRKPRARGEERKEKPADGRSATALTANERREIDDKQPPRAAVLHEVIRVQGEHELQRTLAALWWSAVAAGLTIGLSLMGMGLFRAALPEQEWAIIVSSFGYPMGFLAVILARQQLFTENTLTAVLPVMTEPTLEKAWQLLRLWSVVLFGNIVGTLLFAWAVLHLPIFNEAADAAFLEIGREVMHNDLAQMFAKGIVSGWMIATMVWLIPAAEGAKIWIIAMVTYLMALGSFTHIVVGSAEVGYLAFAGEIGWAEFLLKFALPTLGGNIVGGSLIFALISHAQIRSEG,failed
14,MSLALRGELVVDKTKRKKRRELSEEQKQEIKDAFELFDTDKDQAIDYHELKVAMRALGFDVKKADVLKILKDYDREATGKITFEDFNEVVTDWILERDPHEEILKAFKLFDDDDSGKISLRNLRRVARELGENMSDEELRAMIEEFDKDGDGEINQEEFIAIMTGDI,not failed
15,MKLTLRKKLLEKVENTTETPMLILSVVYVVVALLPDIAVLSPDDLEFLDGLLWIVWGIFATELLVKIFVSPKPLQYMMQNWPDVLIVAMPFLRPLRFLRILLVLPKAWRQTKSVLRQKTFSFIGLTSLSTVLLSAAFVYLVEKGTPSPINSYADALWWAMSTITTVGYGDMYPVTGFGRGVAVFLMLTGITLFGLLTASVASFFVEDDTAKQDHLSLNLLLEKNQQLETQLNQLVETQQPRKRFHLASYRRQLAERETVRKNQKPKRRRIKLPSQDNRNA,failed
16,MTPSPHDLLHCGMNSQDRDETNGDRQRLVRVALGQEDGDLLVRGAQVVQPVTREVYAADVLVAGGRVAAVGPDLPARARRTVQARGAYLAPGFIDGHIHIESSLLTPASFAAAVLPHGTTAVVAEPHEIVNVLGPAGLNWMLGAGRTSGLRVYASAPSCVPASEFEQGGARVDAAQVAEMLARPGVLGLAEMMNYPGVLGGDAGVWDILNAGRRSGKRLDGHAAGLGGRELLAYAAAGLHSDHEATTPEEARERLRAGLWLMVREGSAARNLAALLPVLRDLPRRALLVSDDVSVDELLELGHLDRLLRTCVAGGLHPADAVALVTSQPAEYWGLHDLGVIAPGYHADFVLLRDLQHFGVLETFVGGEEARPGGETPPLPGGGVDLGPGWDGATFDPPAHWPTLQMFPDQIVTGRAAPGSGDARLVVADRYGRGEWSSCWTLGSGLRGGTLGISILHDAHQVALLGGSDADLRAAGRALERLGGGIVLVVDGEVREQLPLPYAGLMTDHAPAEAAAALGRVTAAARLLGCMPAGRL,failed
17,MAKTGDPARAVTPPAIGTLDFALDRSSPVPLYYQLARQLEAAIEHGVLAPGNLLGNEVDLSVRLGLSRPTVRQAIQSLVDKGLLVRRRGVGTQVVHSQVRRPLELSSLYDDLEAAGQDPGTRVVRNEDVPATAEVAAALGVTEGTGVTVLERLRLTHGQPVAMLCNHLPAGLLELDDARLESTGLYRMMRARGITLHSARQTVGARIASREEAERLGEREGAALLTMRRIAYDDTGRPVEYGTHVYRASRYAFDFQLLVRN,not failed
18,MTTTLTILTPTYNRAYILPKLYASLVEQTNKHFDWMVVDDGSTDNTEQLISEFIADGKINIVYIKQKNGGKHRALNTGAQSINSDYIFIVDSDDYLTNDAIDIILENSHYLKEKNLMGMTLLRGYAPDKVIGEKYPEDFMIKNFNQVRYNMGIKGDKAEVVSTKIFRETPFPEIPGERFMSEGVAWKQLAHKGDSLFINKIVYITEYLEDGLTHSGRLLLIKNPLGAMLNAKLAMTKEFSFKIREKNSLLYIAYGFFAKKKVREIITESGQRKLVRVNLLFGWMI,failed
19,MSAISPNGAEEHPIGLTLNGQRLTLQVNPWTTLLDLLREQLDLVGTKKGCDHGQCGACTVLRDGKRVNACLTLAIMCDGAELVTIEGLASGDVLHPMQRAFITHDAFQCGYCTPGQICSAVGLAREGRAYTREAIREQMSGNLCRCGAYSNIVAAVEEALPLMTDLAPPQRGPNP,failed
20,MSLLEQLDKNIAASGGLIVSCQPVPGSPLDKPEIVAAMALAAEQAGAVAVRIEGIDNLRMTRSLVSVPIIGIIKRDLDESPVRITPFLDDVDALAQAGAAIIAVDGTARQRPVAVEALLARIHHHHLLAMADCSSVDDGLACQRLGADIIGTTMSGYTTPDTPEEPDLPLVKALHDAGCRVIAEGRYNSPALAAEAIRYGAWAVTVGSAITRLEHICGWYNDALKKAAS,not failed
